Our source for the response, Kd and percent associated with the microtubule-containing fraction values is PMC12509757.

Where a chain is given by its changes, count along the chain named. Numbers in names are those of the source.

The target of assay [1] is microtubules of HEK293T cells (microtubule fraction), P68363;P07437. Description: tubulin/microtubule fractionation of HEK293T lysates (immunoblot). The conditions noted are these: chain shown with the change;. A general note: A western blot detects proteins with antibodies after separation by electrophoresis.
Assay [2] concerns the target microtubules polymerized from pig brain tubulin (pig) (UniProt P02550). Description: co-sedimentation; in vitro; recombinant His GST protein (1 μM in the legends, 2 μM in the methods) with increasing concentrations of microtubules from pig brain tubulin (or BSA instead) in 1X BRB80, 1 mM DTT, 20 μM paclitaxel, 5 min at room temperature; 100,000g, 15 min, 30 °C through 40% glycerol; immunoblot of supernatant and pellet; apparent Kd, one site-specific binding fit.

The target of assay [3] is microtubules of osteoclasts (polymerized from endogenous tubulin) (mouse (endogenous in RAW264.7-derived osteoclasts)) (UniProt P05213). Description: co-sedimentation; tubulin/microtubule fractionation of Arhgap10 KO #28 osteoclasts expressing doxycycline-induced myc-ARHGAP10 constructs; immunoblot (Fig. S2).
microtubules of osteoclasts (polymerized from endogenous tubulin) (mouse (endogenous in RAW264.7-derived osteoclasts)), sequence (P05213 whole entry, chain 1 of 2): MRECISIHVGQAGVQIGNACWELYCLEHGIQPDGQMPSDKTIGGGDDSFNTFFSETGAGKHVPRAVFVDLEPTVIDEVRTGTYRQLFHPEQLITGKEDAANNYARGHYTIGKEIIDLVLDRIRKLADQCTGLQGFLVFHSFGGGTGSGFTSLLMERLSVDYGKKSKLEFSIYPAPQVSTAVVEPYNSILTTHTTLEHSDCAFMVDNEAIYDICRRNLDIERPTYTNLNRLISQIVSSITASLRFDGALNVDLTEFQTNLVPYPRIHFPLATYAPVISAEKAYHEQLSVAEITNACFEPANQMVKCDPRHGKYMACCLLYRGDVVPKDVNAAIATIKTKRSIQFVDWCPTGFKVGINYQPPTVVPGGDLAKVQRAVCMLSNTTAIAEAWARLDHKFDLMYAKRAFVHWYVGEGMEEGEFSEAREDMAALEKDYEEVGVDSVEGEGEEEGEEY
microtubules of osteoclasts (polymerized from endogenous tubulin) (mouse (endogenous in RAW264.7-derived osteoclasts)), sequence (P99024 whole entry, chain 2 of 2, further chain): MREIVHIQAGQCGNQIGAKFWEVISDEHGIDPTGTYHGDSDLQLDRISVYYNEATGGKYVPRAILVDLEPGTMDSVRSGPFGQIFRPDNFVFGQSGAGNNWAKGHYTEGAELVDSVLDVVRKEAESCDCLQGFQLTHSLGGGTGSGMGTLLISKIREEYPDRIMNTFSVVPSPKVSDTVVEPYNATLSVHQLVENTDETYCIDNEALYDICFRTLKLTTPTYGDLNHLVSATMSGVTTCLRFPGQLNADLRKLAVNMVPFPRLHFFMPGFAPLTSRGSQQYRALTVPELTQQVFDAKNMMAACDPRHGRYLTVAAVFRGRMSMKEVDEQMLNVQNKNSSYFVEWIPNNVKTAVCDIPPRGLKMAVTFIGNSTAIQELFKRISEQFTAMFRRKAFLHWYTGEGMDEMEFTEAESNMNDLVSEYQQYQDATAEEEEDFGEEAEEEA

microtubules of HEK293T cells (microtubule fraction), P68363;P07437, sequence (chain, as listed by the source, chain 1 of 2): as the sequence (P05213 whole entry, chain 1 of 2) above
microtubules of HEK293T cells (microtubule fraction), P68363;P07437, sequence (chain, as listed by the source, chain 2 of 2): as the sequence (P99024 whole entry, chain 2 of 2, further chain) above

B1: myc-tagged BAR-PH (aa 1-388) of ARHGAP10, WT, A1A4S6 K37E; K41E; K44E (protein)
chain: MGLQPLEFSDCYLDSPWFRERIRAHEAELERTNKFIEELIEDGENLIAATKSLSVAQRKFAHSLRDFKFEFIGDAVTDDERCIDASLREFSNFLKNLEEQREIMALSVTETLIKPLEKFRKEQLGAVKEEKKKFDKETEKNYSLIDKHLNLSAKKKDSHLQEADIQVEQNRQHFYELSLEYVCKLQEIQERKKFEFVEPMLSFFQGMFTFYHQGHELAKDFNHYKMELQINIQNTRNRFEGTRSEVEELMNKIRQNPKDHKRASQFTAEGYLYVQEKRPAPFGSSWVKHYCMYRKAAKKFNMIPFEHRSGGKLGDGEVFFLKECTKRHTDSIDRRFCFDIEAADRPGVSLTMQAFSEEERKQWLEALGGKEALSHSFNTAIIPRPEGN
For B1, the response in assay [1] (parent: 60) is 32.7 % in MT.

B2: His GST BAR-PH (aa 1-388) of ARHGAP10, WT (domain or fragment)
chain: B1 chain with E37K, E41K, E44K
For the molecule B2, the Kd in assay [2] was found to be 1270 nM.

B3: myc-tagged full-length human ARHGAP10, WT (HEK293T), A1A4S6 K37E; K41E; K44E (protein)
chain: MGLQPLEFSDCYLDSPWFRERIRAHEAELERTNKFIEELIEDGENLIAATKSLSVAQRKFAHSLRDFKFEFIGDAVTDDERCIDASLREFSNFLKNLEEQREIMALSVTETLIKPLEKFRKEQLGAVKEEKKKFDKETEKNYSLIDKHLNLSAKKKDSHLQEADIQVEQNRQHFYELSLEYVCKLQEIQERKKFEFVEPMLSFFQGMFTFYHQGHELAKDFNHYKMELQINIQNTRNRFEGTRSEVEELMNKIRQNPKDHKRASQFTAEGYLYVQEKRPAPFGSSWVKHYCMYRKAAKKFNMIPFEHRSGGKLGDGEVFFLKECTKRHTDSIDRRFCFDIEAADRPGVSLTMQAFSEEERKQWLEALGGKEALSHSFNTAIIPRPEGNAQLDKMGFTIIRKCISAVETRGINDQGLYRVVGVSSKVQRLLSMLMDVKTCNEVDLENSADWEVKTITSALKQYLRSLPEPLMTYELHGDFIVPAKSGSPESRVNAIHFLVHKLPEKNKEMLDILVKHLTNVSNHSKQNLMTVANLGVVFGPTLMRPQEETVAALMDLKFQNIVVEILIENHEKIFRTPPDTTFPEPTCLSASPPNAPPRQSKRQGQRTKRPVAVYNLCLELEDGDNPYPSKEDTPTSSLDSLSSPSPVTTAVPGPPGPDKNHLLADGGSFGDWASTIPGQTRSSMVQWLNPQSPTTTSSNSAVTPLSPGSSPFPFSPPATVADKPPESIRSRKARAVYPCEAEHSSELSFEIGAIFEDVQTSREPGWLEGTLNGKRGLIPQNYVKLL
For B3, the response in assay [1] (parent: 59.1) was 26 % in MT.

B4: myc-tagged full-length ARHGAP10, WT, re-expressed in Arhgap10 KO osteoclasts (natural protein)
chain: B3 chain with E37K, E41K, E44K
In assay [3], B4 registered a percent associated with the microtubule-containing fraction of 50%.
